Results on two molecules are retold here after patent US20130005646A1 (Novo Nordisk, published 2013).

Starred links: 1 amine or outer side, 2 acyl side, 3 side chain; linkers in the order of their positions; H or OH if unused. Positions of bridges follow the written chain, without caps; N, C: chain ends. *: point of attachment. C18 diacid = O=C(O)CCCCCCCCCCCCCCCCC(=O)*; γGlu = O=C(O)[C@H](CCC(=O)[*:2])N[*:1]

Experiment [1] has as its target T1, human amylin 3(a) receptor (human calcitonin receptor + RAMP-3) (human, UniProt P30988 25-474; O60896 24-148).
T1 sequence (looked up) 1: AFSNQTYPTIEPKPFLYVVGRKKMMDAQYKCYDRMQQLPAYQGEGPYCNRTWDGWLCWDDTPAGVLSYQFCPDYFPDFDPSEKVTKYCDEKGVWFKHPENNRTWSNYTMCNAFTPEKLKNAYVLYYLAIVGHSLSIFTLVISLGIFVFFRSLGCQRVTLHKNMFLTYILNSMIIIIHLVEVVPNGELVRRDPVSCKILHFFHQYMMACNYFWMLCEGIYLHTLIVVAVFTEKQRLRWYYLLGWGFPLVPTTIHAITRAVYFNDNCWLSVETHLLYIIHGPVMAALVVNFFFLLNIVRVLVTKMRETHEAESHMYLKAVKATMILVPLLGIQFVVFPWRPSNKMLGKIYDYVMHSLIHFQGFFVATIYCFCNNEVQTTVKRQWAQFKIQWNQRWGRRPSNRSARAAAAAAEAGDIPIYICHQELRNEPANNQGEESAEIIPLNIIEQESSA
T1 sequence (looked up) 2: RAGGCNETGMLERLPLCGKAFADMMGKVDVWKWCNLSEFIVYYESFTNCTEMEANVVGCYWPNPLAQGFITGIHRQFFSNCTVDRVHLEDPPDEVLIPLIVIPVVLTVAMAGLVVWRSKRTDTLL
The experiment in a line: cell-based or functional assay.

Experiment [2] concerns the target T2, human calcitonin (a) receptor (human, UniProt P30988 25-474).
T2 sequence (looked up): T1 sequence (looked up) 1
The experiment can be described thus: cell-based or functional assay.

B1: N-alpha-{(S)-4-Carboxy-4-[(S)-4-Carboxy-4-(17-carboxyheptadecanoylamino)butyrylamino]butyryl}-[des1,Glu14,His17]-pramlintide (peptide)
peptide: {C18 diacid-γGlu-γGlu}-CNTATCATQRLAEFLHHSSNNFGPILPPTNVGSNTY-NH2
modifications: disulfide 1-6
SMILES: CC[C@H](C)[C@H](NC(=O)[C@@H]1CCCN1C(=O)CNC(=O)[C@H](Cc1ccccc1)NC(=O)[C@H](CC(N)=O)NC(=O)[C@H](CC(N)=O)NC(=O)[C@H](CO)NC(=O)[C@H](CO)NC(=O)[C@H](Cc1c[nH]cn1)NC(=O)[C@H](Cc1c[nH]cn1)NC(=O)[C@H](CC(C)C)NC(=O)[C@H](Cc1ccccc1)NC(=O)[C@H](CCC(=O)O)NC(=O)[C@H](C)NC(=O)[C@H](CC(C)C)NC(=O)[C@H](CCCNC(=N)N)NC(=O)[C@H](CCC(N)=O)NC(=O)[C@@H](NC(=O)[C@H](C)NC(=O)[C@@H]1CSSC[C@H](NC(=O)CC[C@H](NC(=O)CC[C@H](NC(=O)CCCCCCCCCCCCCCCCC(=O)O)C(=O)O)C(=O)O)C(=O)N[C@@H](CC(N)=O)C(=O)N[C@@H]([C@@H](C)O)C(=O)N[C@@H](C)C(=O)N[C@@H]([C@@H](C)O)C(=O)N1)[C@@H](C)O)C(=O)N[C@@H](CC(C)C)C(=O)N1CCC[C@H]1C(=O)N1CCC[C@H]1C(=O)N[C@H](C(=O)N[C@@H](CC(N)=O)C(=O)N[C@H](C(=O)NCC(=O)N[C@@H](CO)C(=O)N[C@@H](CC(N)=O)C(=O)N[C@H](C(=O)N[C@@H](Cc1ccc(O)cc1)C(N)=O)[C@@H](C)O)C(C)C)[C@@H](C)O
Consider B1, for which, in experiment [1], the “Amylin receptor human EC50” value was determined as 0.151 nM. Moreover, the “CTa receptor human EC50” value in experiment [2] was 0.527 nM.

B2: N-alpha-[(S)-4-Carboxy-4-(17-carboxyheptadecanoylamino)butyryl]-His-[His1,Glu14,His17]-pramlintide (peptide)
peptide: {C18 diacid-γGlu}-HHCNTATCATQRLAEFLHHSSNNFGPILPPTNVGSNTY-NH2
modifications: disulfide 3-8
SMILES: CC[C@H](C)[C@H](NC(=O)[C@@H]1CCCN1C(=O)CNC(=O)[C@H](Cc1ccccc1)NC(=O)[C@H](CC(N)=O)NC(=O)[C@H](CC(N)=O)NC(=O)[C@H](CO)NC(=O)[C@H](CO)NC(=O)[C@H](Cc1c[nH]cn1)NC(=O)[C@H](Cc1c[nH]cn1)NC(=O)[C@H](CC(C)C)NC(=O)[C@H](Cc1ccccc1)NC(=O)[C@H](CCC(=O)O)NC(=O)[C@H](C)NC(=O)[C@H](CC(C)C)NC(=O)[C@H](CCCNC(=N)N)NC(=O)[C@H](CCC(N)=O)NC(=O)[C@@H](NC(=O)[C@H](C)NC(=O)[C@@H]1CSSC[C@H](NC(=O)[C@H](Cc2c[nH]cn2)NC(=O)[C@H](Cc2c[nH]cn2)NC(=O)CC[C@H](NC(=O)CCCCCCCCCCCCCCCCC(=O)O)C(=O)O)C(=O)N[C@@H](CC(N)=O)C(=O)N[C@@H]([C@@H](C)O)C(=O)N[C@@H](C)C(=O)N[C@@H]([C@@H](C)O)C(=O)N1)[C@@H](C)O)C(=O)N[C@@H](CC(C)C)C(=O)N1CCC[C@H]1C(=O)N1CCC[C@H]1C(=O)N[C@H](C(=O)N[C@@H](CC(N)=O)C(=O)N[C@H](C(=O)NCC(=O)N[C@@H](CO)C(=O)N[C@@H](CC(N)=O)C(=O)N[C@H](C(=O)N[C@@H](Cc1ccc(O)cc1)C(N)=O)[C@@H](C)O)C(C)C)[C@@H](C)O
B2: the “Amylin receptor human EC50” value in experiment [1] stood at 0.059 nM. In experiment [2], the “CTa receptor human EC50” value worked out at 0.258 nM.
